Experimental findings from patent US9289478B2, “Formulations of tumour-associated peptides binding to human leukocyte antigen (HLA) class I or class II molecules for vaccine” (IMMATICS BIOTECHNOLOGIES GMBH, priority 2008, dated 2016) are described below.

The nature of data set [1]: HPLC-assay for stability of peptides in lyophilised formulation on storage for 3 months (Example 4). It is filed as physicochemical. As to conditions: for stability of peptides in formulation, 1 M: 1 month; for stability of peptides in formulation, 2 M: 2 months; for stability of peptides in formulation, 3 M: 3 months. As to the method: (§1) Identity, purity and peptide content are determined by analytical RP-HPLC chromatography. Detection wavelength was 220 nm.

Data set [2] is described as follows: HPLC-assay for in-use stability after reconstitution with 4.2% sodium hydrogen carbonate solution (Example 3, peptides SEQ ID NO 11-23). It is filed as physicochemical. How it is done:
For clinical trials the above described formulation is dissolved in 700 μl sodium hydrogen carbonate (4.2%). To dissolve the lyophilisate, the vial and the diluent shall be shaken vigorously for 1 minute, check whether solution is clear, otherwise continue shaking for another minute until the solution is clear. Administration of 500 μL of the solution has to occur within 1 h after reconstitution. Dissolved lyophilisate may be stored aseptically at room temperature for up to 1 hour following reconstitution.
as §1

As to “KIQEILTQV (listed as Homo sapiens) [IGF2BP3-001]”, the “stability of peptides in formulation, 1 M” value (“stability of peptides … 1 M” below) in data set [1] (+5° C. +/- 3° C.) is listed as 99.00 % of Initial; in data set [1] (+25° C. +/- 2° C.), 98.01 % of Initial; in data set [1] (-20° C. +/- 5° C.) it was 99.10 % of Initial. Moreover, the “stability of peptides in formulation, 2 M” value (“stability of peptides … 2 M” below) in data set [1] (+5° C. +/- 3° C.) is 97.92 % of Initial; in data set [1] (+25° C. +/- 2° C.), 96.77 % of Initial; in data set [1] (-20° C. +/- 5° C.) it was 97.54 % of Initial. Moreover, the “stability of peptides in formulation, 3 M” value (“stability of peptides … 3 M” below) was 98.57 % of Initial in data set [1] (+5° C. +/- 3° C.), 97.34 % of Initial in data set [1] (+25° C. +/- 2° C.) and 98.42 % of Initial in data set [1] (-20° C. +/- 5° C.). In addition, the “stability of peptides in formulation, INITIAL” value (“stability of peptides … INITIAL” below) in data set [1] (+5° C. +/- 3° C.), in data set [1] (+25° C. +/- 2° C.) and in data set [1] (-20° C. +/- 5° C.) was 100.0% each time. For the same sequence, the “in-use stability, Peptide [%]” value in data set [2] (+Mannitol/Lutrol, 2h) was found to be 100.4%; in data set [2] (+Mannitol/Lutrol, 4h), 100.6%; in data set [2] (+Mannitol/Lutrol, 6h) it was 100.7%; in data set [2] (+Mannitol/Lutrol, Initial), 100.0%; in data set [2] (no excipients, 2h), 100.0%; in data set [2] (no excipients, 4h), 101.2%. Moreover, the “in-use stability, Peptide [%]” value in data set [2] (no excipients, 6h) amounted to 96.0%; in data set [2] (no excipients, Initial), 100.0%.

As for “TMLARLASA (listed as Homo sapiens) [CSP-001, Chondroitin sulfate proteoglycan 4 peptide]”, the “stability of peptides … 1 M” value in data set [1] (+5° C. +/- 3° C.) was 98.99 % of Initial; in data set [1] (+25° C. +/- 2° C.) it was 98.04 % of Initial; in data set [1] (-20° C. +/- 5° C.), 98.99 % of Initial. Besides, the “stability of peptides … 2 M” value is listed as 98.05 % of Initial in data set [1] (+5° C. +/- 3° C.), 96.99 % of Initial in data set [1] (+25° C. +/- 2° C.) and 97.61 % of Initial in data set [1] (-20° C. +/- 5° C.). The “stability of peptides … 3 M” value is 99.81 % of Initial in data set [1] (+5° C. +/- 3° C.), 98.71 % of Initial in data set [1] (+25° C. +/- 2° C.) and 99.61 % of Initial in data set [1] (-20° C. +/- 5° C.). Also, the “stability of peptides … INITIAL” value in data set [1] (+5° C. +/- 3° C.), in data set [1] (+25° C. +/- 2° C.) and in data set [1] (-20° C. +/- 5° C.) was 100.0% in each case. For the same sequence, the “in-use stability, Peptide [%]” value in data set [2] (+Mannitol/Lutrol, 2h) was found to be 100.0%; in data set [2] (+Mannitol/Lutrol, 4h), 100.1%; in data set [2] (+Mannitol/Lutrol, 6h), 99.6%; in data set [2] (+Mannitol/Lutrol, Initial), 100.0%; in data set [2] (no excipients, 2h), 99.2%; in data set [2] (no excipients, 4h), 99.7%. The “in-use stability, Peptide [%]” value was determined as 95.0% in data set [2] (no excipients, 6h) and 100.0% in data set [2] (no excipients, Initial).

Turning to “ALWAWPSEL (listed as Homo sapiens) [BCA-002, Brevican tumour-associated peptide]”, the “stability of peptides … 1 M” value in data set [1] (+5° C. +/- 3° C.) was 99.13 % of Initial; in data set [1] (+25° C. +/- 2° C.), 98.20 % of Initial; in data set [1] (-20° C. +/- 5° C.) it was 99.17 % of Initial. Also, the “stability of peptides … 2 M” value in data set [1] (+5° C. +/- 3° C.) was 98.04 % of Initial; in data set [1] (+25° C. +/- 2° C.), 97.05 % of Initial; in data set [1] (-20° C. +/- 5° C.), 97.61 % of Initial. For the same sequence, the “stability of peptides … 3 M” value is reported as 98.73 % of Initial in data set [1] (+5° C. +/- 3° C.), 97.88 % of Initial in data set [1] (+25° C. +/- 2° C.) and 98.61 % of Initial in data set [1] (-20° C. +/- 5° C.). Further, the “stability of peptides … INITIAL” value in data set [1] (+5° C. +/- 3° C.), in data set [1] (+25° C. +/- 2° C.) and in data set [1] (-20° C. +/- 5° C.) was 100.0% throughout. The “in-use stability, Peptide [%]” value in data set [2] (+Mannitol/Lutrol, 2h) turned out to be 99.8%; in data set [2] (+Mannitol/Lutrol, 4h) it was 99.6%; in data set [2] (+Mannitol/Lutrol, 6h) it was 98.9%; in data set [2] (+Mannitol/Lutrol, Initial), 100.0%; in data set [2] (no excipients, 2h), 99.9%; in data set [2] (no excipients, 4h), 100.1%. For the same sequence, the “in-use stability, Peptide [%]” value in data set [2] (no excipients, 6h) was determined as 95.4%; in data set [2] (no excipients, Initial), 100.0%.

As for “KVFAGIPTV (listed as Homo sapiens) [PTP-005, Protein tyrosine phosphatase, receptor-type, Z polypeptide 1 peptide]”, the entries for the “stability of peptides … 1 M” value in data set [1] (+5° C. +/- 3° C.), in data set [1] (+25° C. +/- 2° C.) and in data set [1] (-20° C. +/- 5° C.) were 98.93 % of Initial, 98.16 % of Initial and 98.99 % of Initial, respectively. Besides, the “stability of peptides … 2 M” value in data set [1] (+5° C. +/- 3° C.) is on record as 97.79 % of Initial; in data set [1] (+25° C. +/- 2° C.) it was 97.10 % of Initial; in data set [1] (-20° C. +/- 5° C.), 97.41 % of Initial. In addition, the “stability of peptides … 3 M” value in data set [1] (+5° C. +/- 3° C.) was 98.67 % of Initial; in data set [1] (+25° C. +/- 2° C.), 98.30 % of Initial; in data set [1] (-20° C. +/- 5° C.), 98.34 % of Initial. In addition, the “stability of peptides … INITIAL” value in data set [1] (+5° C. +/- 3° C.), in data set [1] (+25° C. +/- 2° C.) and in data set [1] (-20° C. +/- 5° C.) was 100.0% throughout. In addition, the “in-use stability, Peptide [%]” value in data set [2] (+Mannitol/Lutrol, 2h) turned out to be 100.1%; in data set [2] (+Mannitol/Lutrol, 4h), 100.3%; in data set [2] (+Mannitol/Lutrol, 6h) it was 99.8%; in data set [2] (+Mannitol/Lutrol, Initial), 100.0%; in data set [2] (no excipients, 2h) it was 99.9%; in data set [2] (no excipients, 4h) it was 100.4%. Further, the “in-use stability, Peptide [%]” value in data set [2] (no excipients, 6h) was 95.8%; in data set [2] (no excipients, Initial), 100.0%.
